Source: US20230345975A1, “COMPOSITIONS AND METHODS OF PRESERVING MEAT SUBSTITUTES” (Wisconsin Alumni Research Foundation, priority 2016, published 2023)

Biological target: soybean Hb (Lba) (Glycine max, UniProt P02238)
Experiment: Redness (a-value) of Lba solutions after exposure to 35 fc of light for 4 days
Details: 35 fc light, 4 days, main effect over niacin amounts
Protocol: FIG. 2—Effect of pH and different molar ratios of niacin to soybean Hb on the redness of Lba solutions. Measurement after exposure to 35 fc of light for 4 days
100 grams of meat analog containing a 3:1 dose of niacin would provide 5.9 mg niacin; a 6:1 dose would provide 11.8 mg niacin.

Sequence of soybean Hb (Lba) (P02238 whole entry): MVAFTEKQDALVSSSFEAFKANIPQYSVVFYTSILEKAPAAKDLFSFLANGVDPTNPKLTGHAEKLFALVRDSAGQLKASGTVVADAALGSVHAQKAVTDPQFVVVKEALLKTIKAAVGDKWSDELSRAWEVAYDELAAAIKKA

B1: Lba: plant Hb (soybean hemoglobin; Lba) added to meat analog (protein, UniProt P02238 2-144, looked up)
Leghemoglobin 3: VAFTEKQDALVSSSFEAFKANIPQYSVVFYTSILEKAPAAKDLFSFLANGVDPTNPKLTGHAEKLFALVRDSAGQLKASGTVVADAALGSVHAQKAVTDPQFVVVKEALLKTIKAAVGDKWSDELSRAWEVAYDELAAAIKKA
B1 was tested, and the “Redness (a-value) at day 4” value (pH 6.0) was 4.72a, the “Redness (a-value) at day 4” value (pH 6.3) was 4.62ab and the “Redness (a-value) at day 4” value (pH 6.6) was 4.45b. The “Redness (a-value) at day 4” value (pH 7.0) was 3.99c.
